Laboratory results from US6514942B1, “Methods and compositions for stimulating T-lymphocytes” (The Board of Regents, The University of Texas System, priority 1995, dated 2003).

Target: T1, HLA-A2 of T2 cells (Homo sapiens, UniProt P04439, D140Y/D185E/D98H/E176V/E277Q/G131W/G231S/I119V/I121R/I166T/I218V/L300P/L318F/N151K/N90K/P208A/P217A/Q86G/Q94H/R138H/R169H/T345S)
T1 construct: cell surface expression of HLA-A2 is lower (30-40%) than in normal LBL lines transfected with HLA-A2; endogenous in cells; host or cells: T2 (transport deletion mutant) human lymphoblastoid cells, obtained from Dr. Peter Creswell
Assay: Reactivity of BB7.2 mAb with T2 cells after culture with peptide (immunofluorescence, FL1)
Assay type: cell-based
Conditions: peptide 50 μg/ml, overnight culture
Method: FIG. 5B. Effects of HER-2 peptides on reactivity of BB7.2 mAb with T2 cells. Studies were performed as described in the legend to FIG. 5A.
mAbs to CD3 (OKT3-FITC), CD4 (OKT4-FITC) and CD8 (OKT8-FITC) were obtained from Ortho Diagnostic (Ortho, Raritan, N.J.), mAb W6/32 (anti-HLA, -A, -B, -C) from Dako (Dako-Dakopatts, Denmark); HLA-A2 reacting mAb BB7.2 and MA2.1 from ATCC. Immunofluorescence studies were performed as described in Example 1.
To determine whether these peptides and longer analogs affect HLA-A2 conformation as an indication of HLA-A2 binding, the effects of HER-2 peptides on the reactivity of conformationally dependent mAb MA2.1 and BB.7.2 were examined with HLA-A2 of T2 cells. The human cell line T2 has a defect affecting endogenous peptide loading of MHC class I molecules. As a consequence, cell surface expression of HLA-A2 is lower (30-40%) than in normal LBL lines transfected with HLA-A2 (e.g., C1R) but the reactivity of MA2.1 and BB.7.2 mAb is increased when certain HLA-A2 binding peptides are added to the culture medium (Anderson et al., 1993). Although most human MHC class I molecules cannot be induced at the low temperatures used for their murine counterparts because of fundamental structural differences between human and mouse class I (Anderson et al., 1993), the fact that they express few endogenous (mainly signal) peptides (Zweerink et al., 1993) increases the sensitivity of detection of peptide-HLA-A2 interaction.

ELVSEFSRV [Peptide C84, HER-2:971-979 analog, Met(P9) substituted by Val]
FL1 of T2 cells stained with BB7.2 mAb: even higher increase in FL1
